Key:
MT1-F = target: T1, MT1-F (Homo sapiens, UniProt P50281); experiment: 125I-labeled TIMP-2 binding assay on transfected CHO-K1 cells
T1 construct: expressed in transfected cells
Method: FIG. 12: The efficacies of MT1PEX-F on the proteolytic activity and TIMP-2 binding ability of MT1-F expressed on a cell surface are shown. As is shown in FIG. 12 through FIG. 14, CHO-K1 cells were transfected with the expression vectors for MT1-F, MT1PEX-F or MT1Cat-F, or a vector alone (Mock). The cells were then treated with trypsin, and seeded on DQ™-gelatin coated cover slips for proteolytic activity tests (FIG. 13) and in 24-well plates for TIMP-2 binding assays (FIG. 12) and for proMMP-2 activation (FIG. 14). Results are all from the same transfection experiment. […]
Next, to determine if MT1PEX-F affects the catalytic activity of MT1-MMP on the cell surface or not, tests for gelatin degrading activity and binding capacity to TIMP-2 were conducted using cells transfected in the same incubator. […] Transfected cells on the DQ™ gelatin-coated cover slip as shown in FIG. 13 were incubated in a medium at 37° C. for 18 hrs, and the generated fluorescence was analyzed using confocal microscopy. […] MT1-MMP specific binding was calculated by subtracting the datum obtained in the presence of BB-94 (50 μM) from each datum derived from the corresponding experiments. […] DQ™ gelatin is a fluorescence-quenched gelatin, which fluoresces upon proteolytic cleavage. […]

MT1-F/NGFR = target: T2, MT1-F/NGFR (Homo sapiens, UniProt P04629+P50281); experiment: Dimer formation of MT1-F/NGFR chimera on the cell surface (anti-phosphotyrosine PY20 Western blotting, co-transfected COS1 cells); assay type: cell-based; details: for competition in the dimer formation of MT1-F/NGFR (PY20 band intensity): COS1 cells co-transfected with MT1-F/NGFR and the construct (FIG. 23)
T2 construct: expressed in transfected cells; host or cells: COS1 cells (pSG5 vector)
Method: Cell lysate samples were subjected to separation on SDS-PAGE, followed by a transfer of the proteins in the gel to nitrocellulose membranes (Hybond-ECL, Amersham Pharmacia Biotech, Inc.). After blocking with a solution of 10% skim milk dissolved in TBS (20 mM Tris-HCl buffer, pH 7.5 containing 150 mM NaCl), the membrane was exposed to a monoclonal anti-FLAG M2 antibody (3 μg/ml) for detecting FLAG-tagged MT1-MMP and its mutants. In order to visualize the immunoreactive bands, the membrane was further exposed to an alkaline phosphatase-conjugated goat anti-mouse IgG antibody. For the purpose of detecting a phosphotyrosine residue in chimera proteins, a monoclonal anti-phosphotyrosine antibody, PY20 (1 μg/ml) was used.
Cell lysates were subjected to SDS/PAGE, followed by a transfer of the proteins to nitrocellulose membranes (Hybond-ECL, Amersham Pharmacia Biotech, Inc.). MT1-MMP, MT1Cat, MT1-MT4PEX and MT1-F/NGFR were detected with a polyclonal anti-CAT antibody (1:2000), while MT1-MMP, MT1PEX and MT1-F/NGFR with an anti-PEX antibody (222-1D8, 0.5 μg/ml). FLAG-tagged MT1-MMP and its mutants were detected with an anti-FLAG M2 antibody (3 μg/ml). Chimera proteins containing a phosphotyrosine residue were detected with a monoclonal mouse anti-phosphotyrosine antibody, PY20 (ICN Biochemicals, Inc., OH, USA; 1 μg/ml). Immunoreactive bands were visualized with an alkaline phosphatase-conjugated goat anti-mouse IgG or anti-rabbit IgG (Sigma).
NGFR forms a dimer through binding to its ligand. Subsequently, tyrosine residues in the cytoplasmic domain are trans-phosphorylated by its tyrosine kinase (Jing, S. et al., Neuron, 9: 1067-1079, 1992; Lemmon, M. A. et al., Trends Biochem. Sci., 19: 459-463, 1994).
By utilizing the above principle, a chimeric protein is first constructed consisting of the ectodomain of MT1-MMP and the transmembrane (TM) and cytoplasmic (CP) domains of NGFR (FIG. 8) in order to test for direct complex formation. When the ectodomain of this chimeric protein forms a homophilic complex in a similar manner, tyrosine residues in the cytoplasmic domain will be phosphorylated.
It is investigated whether co-expression of MT1PEX-F and MT1-F competes in the dimer formation of MT1-F/NGFR or not. For the test, the expression plasmids for MT1-F/NGFR and MT1PEX-F were co-transfected into COS1 cells.
Next, the expression plasmids for MT1-F/NGFR and FLAG-tagged MT1PEX (MT1PEX-F), MT1Cat (MT1Cat-F), or MT1-F were co-transfected to investigate if the dimer formation of the chimera could be disrupted or not.

Row | TIMP-2 binding capacity as compared to the cells bearing MT1-F (MT1-F; CHO-K1 cells expressing the mutant (FIG. 12)) | decrease in TIMP-2 binding on the cell surface as compared with MT1-F alone (MT1-F; CHO-K1 cells co-transfected with MT1-F, 25 nM 125I-TIMP-2, 0° C., 1 hr, BB-94 (50 μM) background subtracted (FIG. 12)) | decrease of phosphotyrosine signal (MT1-F/NGFR; COS1 cells co-expressing MT1-F/NGFR and Rac1DA (FIG. 24)) | inhibition of the phosphorylation of MT1-F/NGFR (MT1-F/NGFR; COS1 cells co-transfected with MT1-F/NGFR, increasing levels of MT1PEX-F expression, PY20 band intensity (FIG. 10)) | Substance | competition in the dimer formation of MT1-F/NGFR (PY20 band intensity) (MT1-F/NGFR) | phosphorylation of MT1-F/NGFR (MT1-F/NGFR; COS1 cells co-transfected with MT1-F/NGFR and MT1PEX-F at indicated DNA ratio (FIG. 10))
1 | equivalent TIMP-2 binding capacity | – | – | – | MT1Cat-F: PEX-deleted FLAG-tagged MT1-MMP (Δ Ile318-Gly535) | did not decrease the intensity of the band | –
2 | – | 37% | 43% | ≥ 90% | MT1PEX-F: Catalytic domain-deleted FLAG-tagged MT1-MMP (Δ Tyr112-Pro312), expressed by transfection | effectively competed | inhibited depending on the expression level

Reference: patent publication US20040120954A1, “Regulation of mt1-mmp activity” (priority 2000, published 2004)
